Reference: patent US20120027774A1 (DYAX, published 2012)

Columns and labels:
[1] = biological target: human MMP-9 (human, UniProt P14780 107-707, limits assumed); experiment: cell-based or functional assay
[2] = biological target: T1, human MMP-7 (human, UniProt P09237 95-267); experiment: cell-based or functional assay
T1 sequence (looked up): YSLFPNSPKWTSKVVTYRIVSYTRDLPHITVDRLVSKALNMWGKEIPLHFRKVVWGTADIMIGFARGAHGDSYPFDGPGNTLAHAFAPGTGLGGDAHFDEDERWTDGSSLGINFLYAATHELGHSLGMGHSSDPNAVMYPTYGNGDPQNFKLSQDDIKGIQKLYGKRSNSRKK

[3] = biological target: human MMP-10 (human, UniProt P09238 99-271, limits assumed); experiment: cell-based or functional assay
human MMP-10, sequence (P09238 99-271 limits assumed): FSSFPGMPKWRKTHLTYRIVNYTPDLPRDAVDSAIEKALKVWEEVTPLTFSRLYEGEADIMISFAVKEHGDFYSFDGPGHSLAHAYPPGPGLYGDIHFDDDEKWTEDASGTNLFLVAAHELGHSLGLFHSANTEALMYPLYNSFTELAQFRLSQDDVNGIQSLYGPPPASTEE

[4] = biological target: human MMP-8 (human, UniProt P22894 100-262, limits assumed); experiment: cell-based or functional assay
human MMP-8, sequence (P22894 100-262 limits assumed): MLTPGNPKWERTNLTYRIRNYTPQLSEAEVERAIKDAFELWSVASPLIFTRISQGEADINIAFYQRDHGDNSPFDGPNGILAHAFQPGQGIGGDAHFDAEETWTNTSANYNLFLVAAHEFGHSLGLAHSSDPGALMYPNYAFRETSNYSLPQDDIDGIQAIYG

[5] = biological target: human MMP-14 (human, UniProt P50281 112-284, limits assumed); experiment: cell-based or functional assay
[6] = biological target: mouse MMP-9 (mouse, UniProt P41245 20-730, limits assumed); experiment: cell-based or functional assay
mouse MMP-9, sequence (P41245 20-730 limits assumed): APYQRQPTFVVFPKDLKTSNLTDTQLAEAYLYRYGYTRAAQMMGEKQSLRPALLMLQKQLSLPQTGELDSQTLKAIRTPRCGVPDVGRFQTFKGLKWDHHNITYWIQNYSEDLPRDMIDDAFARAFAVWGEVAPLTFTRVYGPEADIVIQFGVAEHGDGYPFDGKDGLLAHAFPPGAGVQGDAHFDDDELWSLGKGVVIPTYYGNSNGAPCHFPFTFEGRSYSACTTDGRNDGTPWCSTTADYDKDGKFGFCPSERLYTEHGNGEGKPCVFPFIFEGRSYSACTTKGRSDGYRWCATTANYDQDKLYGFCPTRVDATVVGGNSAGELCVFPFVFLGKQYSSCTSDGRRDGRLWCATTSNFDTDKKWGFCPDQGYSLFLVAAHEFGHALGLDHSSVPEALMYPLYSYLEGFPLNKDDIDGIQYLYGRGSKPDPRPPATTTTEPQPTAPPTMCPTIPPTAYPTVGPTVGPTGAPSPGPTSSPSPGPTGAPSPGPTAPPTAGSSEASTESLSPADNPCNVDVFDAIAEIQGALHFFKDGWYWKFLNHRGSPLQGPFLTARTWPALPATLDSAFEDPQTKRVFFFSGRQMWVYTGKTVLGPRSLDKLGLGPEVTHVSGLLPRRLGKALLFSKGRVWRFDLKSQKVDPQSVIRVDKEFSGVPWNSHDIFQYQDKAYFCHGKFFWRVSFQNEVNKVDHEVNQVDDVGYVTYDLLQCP

[7] = biological target: T2, Human MMP-9 catalytic domain (BIOMOL, SE-244) (human, UniProt P14780 107-445, limits assumed); experiment: cell-based or functional assay
T2 sequence (P14780 107-445 limits assumed): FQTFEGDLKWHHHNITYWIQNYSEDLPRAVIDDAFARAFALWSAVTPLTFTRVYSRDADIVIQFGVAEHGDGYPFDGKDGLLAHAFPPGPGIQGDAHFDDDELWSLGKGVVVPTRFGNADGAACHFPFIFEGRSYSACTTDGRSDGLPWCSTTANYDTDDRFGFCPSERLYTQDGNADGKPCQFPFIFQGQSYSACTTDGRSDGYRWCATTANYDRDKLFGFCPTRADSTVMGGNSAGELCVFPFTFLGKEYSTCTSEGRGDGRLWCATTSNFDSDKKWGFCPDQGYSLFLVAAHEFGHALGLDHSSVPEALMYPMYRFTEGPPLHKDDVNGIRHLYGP

[8] = biological target: human MMP-13 (human, UniProt P45452 104-274); experiment: cell-based or functional assay
[9] = biological target: T3, human MMP-1 (human, UniProt P03956 100-269, limits assumed); experiment: cell-based or functional assay
T3 sequence (looked up): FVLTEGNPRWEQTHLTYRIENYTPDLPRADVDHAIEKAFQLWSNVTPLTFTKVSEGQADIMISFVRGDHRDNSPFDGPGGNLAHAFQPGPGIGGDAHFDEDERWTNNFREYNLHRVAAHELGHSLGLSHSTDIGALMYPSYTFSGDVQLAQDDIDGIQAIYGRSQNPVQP

[10] = biological target: human MMP-2 (human, UniProt P08253 110-452, limits assumed); experiment: cell-based or functional assay
human MMP-2, sequence (P08253 110-452 limits assumed): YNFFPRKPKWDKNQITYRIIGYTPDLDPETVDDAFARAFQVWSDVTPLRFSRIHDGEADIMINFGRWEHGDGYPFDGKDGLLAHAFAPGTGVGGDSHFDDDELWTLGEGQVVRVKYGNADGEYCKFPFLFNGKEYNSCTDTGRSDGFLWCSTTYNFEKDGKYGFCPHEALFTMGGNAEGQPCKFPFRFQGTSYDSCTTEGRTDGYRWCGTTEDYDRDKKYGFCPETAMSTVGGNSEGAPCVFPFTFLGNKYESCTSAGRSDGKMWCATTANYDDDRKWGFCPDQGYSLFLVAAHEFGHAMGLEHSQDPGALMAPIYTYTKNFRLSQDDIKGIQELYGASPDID

[11] = biological target: human MMP-3 (human, UniProt P08254 100-272, limits assumed); experiment: cell-based or functional assay
human MMP-3, sequence (P08254 100-272 limits assumed): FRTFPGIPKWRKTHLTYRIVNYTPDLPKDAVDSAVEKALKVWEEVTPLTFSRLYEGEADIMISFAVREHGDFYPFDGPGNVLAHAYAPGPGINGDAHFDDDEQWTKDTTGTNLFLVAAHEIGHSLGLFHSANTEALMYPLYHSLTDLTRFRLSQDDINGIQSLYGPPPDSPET

[12] = biological target: human MMP-12 (human, UniProt P39900 106-268, limits assumed); experiment: cell-based or functional assay
human MMP-12, sequence (P39900 106-268 limits assumed): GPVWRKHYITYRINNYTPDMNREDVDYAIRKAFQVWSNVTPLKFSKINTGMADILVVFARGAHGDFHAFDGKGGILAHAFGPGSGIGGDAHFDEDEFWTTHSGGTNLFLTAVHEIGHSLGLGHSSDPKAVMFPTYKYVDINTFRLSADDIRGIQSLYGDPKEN

[13] = biological target: mouse MMP-2 (mouse, UniProt P33434 30-662, limits assumed); experiment: cell-based or functional assay
mouse MMP-2, sequence (P33434 30-662 limits assumed): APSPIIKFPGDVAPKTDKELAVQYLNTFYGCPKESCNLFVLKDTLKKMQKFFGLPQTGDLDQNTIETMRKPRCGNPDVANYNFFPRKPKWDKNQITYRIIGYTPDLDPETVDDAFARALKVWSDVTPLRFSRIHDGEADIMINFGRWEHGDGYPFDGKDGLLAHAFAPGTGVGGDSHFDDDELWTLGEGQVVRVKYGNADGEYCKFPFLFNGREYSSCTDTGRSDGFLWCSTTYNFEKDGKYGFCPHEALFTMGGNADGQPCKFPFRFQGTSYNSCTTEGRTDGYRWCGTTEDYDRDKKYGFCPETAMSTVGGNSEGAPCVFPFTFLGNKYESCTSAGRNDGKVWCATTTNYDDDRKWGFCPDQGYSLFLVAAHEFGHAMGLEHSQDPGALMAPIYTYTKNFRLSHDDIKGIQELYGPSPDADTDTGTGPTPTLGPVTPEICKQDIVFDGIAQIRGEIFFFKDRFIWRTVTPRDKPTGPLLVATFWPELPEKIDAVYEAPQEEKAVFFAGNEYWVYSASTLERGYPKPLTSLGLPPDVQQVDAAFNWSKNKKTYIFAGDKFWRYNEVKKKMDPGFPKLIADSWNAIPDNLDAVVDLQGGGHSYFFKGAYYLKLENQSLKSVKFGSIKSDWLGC

[14] = biological target: T2, Human MMP-9 catalytic domain (BIOMOL, …); experiment: cell-based or functional assay; remark: listed apart in the source
[15] = biological target: T2, Human MMP-9 catalytic domain (BIOMOL, …); experiment: enzyme inhibition, competitive model; intercept of IC50 against substrate concentration (3 to 15 µM), 0.6 nM enzyme
Experimental: Experiments were performed to characterize the interaction of the M0166-F10 hIgG1 with human MMP-9. The Ki was measured and the inhibition mechanism was determined.
Materials: [0427] Substrate: Mca-KPLGL-Dap(Dnp)-AR-NH₂ (M-2350) from BACHEM (521575). A 10 mM stock solution was prepared in DMSO. [0428] Human MMP-9 catalytic domain (BIOMOL, SE-244), stock solution at 0.24 mg/ml. [0429] M0166-F10 hIgG1: 2551-095. Dialysed against TCN. Stock solution at 0.226 mg/ml. [0430] Experiments were performed in TCNB: 50 mM Tris/HCl, 10 mM CaCl₂, 150 mM NaCl, 0.05% Brij 35, pH 7.5. [0431] 96-well black plates from Perkin Elmer (6005270). [0432] Spectramax M2e to measure fluorescence emission of the substrate upon hydrolysis (temperature control set at 30° C.; λexc=328 nm and λₑₘ=393 nm).
Procedure: [0434] 90 μl of the enzyme (final concentration=0.6 nM) was preincubated with 90 μl of various concentrations (0-100 nM final) of M0166-F10 for 1.5 h at 30° C. 20 μl the substrate was then added to a final concentration ranging from 3 to 15 μM, and initial rates were recorded. [0435] Each data point was measured in triplicate, and initial rates were averaged. […] Averaged initial rates were plotted against the M0166-F10 concentration for each substrate concentration, and IC₅₀'s were calculated using the following equation: […]

[16] = biological target: T2, Human MMP-9 catalytic domain (BIOMOL, …); experiment: cell-based or functional assay; remark: listed apart in the source
[17] = biological target: T2, Human MMP-9 catalytic domain (BIOMOL, …); experiment: cell-based or functional assay; remark: listed apart in the source

human MMP-9, sequence (P14780 107-707 limits assumed): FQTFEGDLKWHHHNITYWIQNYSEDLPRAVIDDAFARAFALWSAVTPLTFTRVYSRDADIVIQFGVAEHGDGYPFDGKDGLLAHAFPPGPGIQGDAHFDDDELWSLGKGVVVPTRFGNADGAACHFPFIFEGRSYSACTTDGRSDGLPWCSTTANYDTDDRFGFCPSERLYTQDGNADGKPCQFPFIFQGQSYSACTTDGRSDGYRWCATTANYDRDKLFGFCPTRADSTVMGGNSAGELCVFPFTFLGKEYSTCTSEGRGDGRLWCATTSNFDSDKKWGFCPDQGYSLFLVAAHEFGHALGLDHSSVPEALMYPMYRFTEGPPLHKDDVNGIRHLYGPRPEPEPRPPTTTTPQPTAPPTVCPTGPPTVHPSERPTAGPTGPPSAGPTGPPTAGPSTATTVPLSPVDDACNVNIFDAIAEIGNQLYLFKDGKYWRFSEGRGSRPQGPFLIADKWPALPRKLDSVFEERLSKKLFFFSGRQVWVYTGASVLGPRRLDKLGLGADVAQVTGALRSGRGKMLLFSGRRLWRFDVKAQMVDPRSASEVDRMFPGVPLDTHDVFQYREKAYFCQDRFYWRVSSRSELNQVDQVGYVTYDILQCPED

B1: 539A-M0166-F10 (format not stated: Fab or hIgG-1) (antibody, V domains shown)
VH: EVQLLESGGGLVQPGGSLRLSCAASGFTFSPYLMNWVRQAPGKGLEWVSSIYSSGGGTGYADSVKGRFTISRDNSKNTLYLQMNSLRAEDTAVYYCARIYHSSSGPFYGMDVWGQGTTVTVSS
VL: AQSELTQPPSASAAPGQRVTISCSGSSSNIGSNTVTWYQKLPGTAPKLLIYNNYERPSGVPARFSGSKSGTSASLAISGLQSEDEADYYCATWDDSLIANYVFGSGTKVTVLG
IC50, inhibition of MMP-9 activity [1]: 1.8 nM

B2: 539A-M0166-F10 Fab (Fab, V domains shown)
VH: EVQLLESGGGLVQPGGSLRLSCAASGFTFSPYLMNWVRQAPGKGLEWVSSIYSSGGGTGYADSVKGRFTISRDNSKNTLYLQMNSLRAEDTAVYYCARIYHSSSGPFYGMDVWGQGTTVTVSS
VL: AQSELTQPPSASAAPGQRVTISCSGSSSNIGSNTVTWYQKLPGTAPKLLIYNNYERPSGVPARFSGSKSGTSASLAISGLQSEDEADYYCATWDDSLIANYVFGSGTKVTVLG
residual enzyme activity in the presence of 1 µM antibody, 10 µM fluorogenic peptide substrate (unit not given) [2]: 93 | residual enzyme activity in the presence of 1 µM antibody, 10 µM fluorogenic peptide substrate (unit not given) [3]: 102 | residual enzyme activity in the presence of 1 µM antibody, 10 µM fluorogenic peptide substrate (unit not given) [4]: 100 | residual enzyme activity in the presence of 1 µM antibody, 10 µM fluorogenic peptide substrate (unit not given) [5]: 115 | residual enzyme activity in the presence of 1 µM antibody, 10 µM fluorogenic peptide substrate (unit not given) [6]: 94 | residual enzyme activity in the presence of 1 µM antibody, 10 µM fluorogenic peptide substrate (unit not given) [7]: 8 | residual enzyme activity in the presence of 1 µM antibody, 10 µM fluorogenic peptide substrate (unit not given) [8]: 106 | residual enzyme activity in the presence of 1 µM antibody, 10 µM fluorogenic peptide substrate (unit not given) [9]: 104 | residual enzyme activity in the presence of 1 µM antibody, 10 µM fluorogenic peptide substrate (unit not given) [10]: 126 | residual enzyme activity in the presence of 1 µM antibody, 10 µM fluorogenic peptide substrate (unit not given) [11]: 82 | residual enzyme activity in the presence of 1 µM antibody, 10 µM fluorogenic peptide substrate (unit not given) [12]: 90 | residual enzyme activity in the presence of 1 µM antibody, 10 µM fluorogenic peptide substrate (unit not given) [13]: 113 | IC50 on human MMP-9 activity (fluorogenic substrate, 10 µM) [14]: ~33 nM

B3: 539A-M0166-F10 hIgG1 (antibody, V domains shown)
VH: EVQLLESGGGLVQPGGSLRLSCAASGFTFSPYLMNWVRQAPGKGLEWVSSIYSSGGGTGYADSVKGRFTISRDNSKNTLYLQMNSLRAEDTAVYYCARIYHSSSGPFYGMDVWGQGTTVTVSS
VL: QSELTQPPSASAAPGQRVTISCSGSSSNIGSNTVTWYQKLPGTAPKLLIYNNYERPSGVPARFSGSKSGTSASLAISGLQSEDEADYYCATWDDSLIANYVFGSGTKVTVLG
notes: Human IgG1; also called DL15
residual enzyme activity in the presence of 1 µM antibody, 10 µM fluorogenic peptide substrate (unit not given) [7]: 4 | Ki [15]: 0.3 nM | a (intercept) of the linear fit of IC50 (nM) against M-2350 substrate concentration (µM); unit taken from the IC50 axis [16]: 0.586 nM | b (gradient) of the linear fit of IC50 (nM) against M-2350 substrate concentration (µM); unit not given [16]: 0.39 | IC50 (inhibition of enzyme activity, 3 µM substrate M-2350, 0.6 nM enzyme); unit from the concentration axis [panel 3µM] [17]: 2.16 nM | IC50 (inhibition of enzyme activity, 5 µM substrate M-2350, 0.6 nM enzyme); unit from the concentration axis [panel 5µM] [17]: 2.45 nM | IC50 (inhibition of enzyme activity, 7.5 µM substrate M-2350, 0.6 nM enzyme); unit from the concentration axis [panel 7.5µM] [17]: 4.22 nM | IC50 (inhibition of enzyme activity, 10 µM substrate M-2350, 0.6 nM enzyme); unit from the concentration axis [panel 10µM] [17]: 3.99 nM | IC50 (inhibition of enzyme activity, 12.5 µM substrate M-2350, 0.6 nM enzyme) [panel 12.5µM] [17]: 5.35 nM | IC50 (inhibition of enzyme activity, 15 µM substrate M-2350, 0.6 nM enzyme); unit from the concentration axis [panel 15µM] [17]: 7.06 nM | IC50 on human MMP-9 activity (fluorogenic substrate, 10 µM) [14]: 4.3 nM
